# Data: PMC10876309, “Two Main Cancer Biomarkers as Molecular Targets of Binase Antitumor Activity” (BioMed Research International, 2024)
# B1: binase, ribonuclease from Bacillus pumilus (enzyme, UniProt P00649 54-162, looked up)
# chain: AVINTFDGVADYLIRYKRLPDNYITKSQASALGWVASKGNLAEVAPGKSIGGDVFSNREGRLPSASGRTWREADINYVSGFRNADRLVYSSDWLIYKTTDHYATFTRIR
# notes: binase, ribonuclease of Bacillus pumilus, 12.3 kDa, pI 9.5; also called bacterial ribonuclease binase; cytotoxic ribonuclease from Bacillus pumilus; source: purified as described earlier [21, 22]
# Biological target: the molecule itself
# Assay: SDS-PAGE and western blot; binase in the immunoprecipitated samples, blotted with anti-binase antibodies; bands of 12 kDa and 25 kDa
protein,measurement,value
B1,binding result,binds
